In patent US10925971B2, “Methods of treating PRLR positive breast cancer” (Regeneron Pharmaceuticals, Inc., priority 2016, dated 2021):

T1: native PRLR expressing T47D cells (Homo sapiens, UniProt P16471)
T1 construct: a native PRLR expressing cell line (T47D); endogenous in cells; host or cells: T47D
T1 sequence (P16471 25-622): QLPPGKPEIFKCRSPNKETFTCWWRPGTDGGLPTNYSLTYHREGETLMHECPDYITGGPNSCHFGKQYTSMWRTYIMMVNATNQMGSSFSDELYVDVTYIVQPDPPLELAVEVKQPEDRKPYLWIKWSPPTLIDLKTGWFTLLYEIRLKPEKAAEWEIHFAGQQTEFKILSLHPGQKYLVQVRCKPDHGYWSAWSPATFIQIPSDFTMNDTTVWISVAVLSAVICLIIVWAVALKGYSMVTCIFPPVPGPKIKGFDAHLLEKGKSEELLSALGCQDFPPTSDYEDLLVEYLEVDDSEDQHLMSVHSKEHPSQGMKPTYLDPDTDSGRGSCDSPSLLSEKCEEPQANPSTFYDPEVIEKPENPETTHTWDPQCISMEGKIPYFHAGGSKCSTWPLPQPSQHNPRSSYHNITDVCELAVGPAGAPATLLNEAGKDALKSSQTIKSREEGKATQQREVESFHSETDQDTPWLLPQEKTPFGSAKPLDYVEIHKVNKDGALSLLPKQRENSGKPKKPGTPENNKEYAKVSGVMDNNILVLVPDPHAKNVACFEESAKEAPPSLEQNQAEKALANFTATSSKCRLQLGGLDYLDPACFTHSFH


Key:
HEK293 parental cells = experiment: FACS cell surface binding; design: species or system human
Method in brief: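 HEK293 cells stably transfected with HA-tagged human, cynomolgus or mouse PRLR (G418-selected), or parental HEK293, were stained with 10 μg/ml antibody for 30 min on ice. Binding was then detected with 10 μg/ml PE anti-human secondary for 30 min on ice, and MFI was expressed as fold over isotype control.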

[1] = molecular target: T1, native PRLR expressing T47D cells; experiment: FACS cell surface binding
Method in brief: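 Binding expressed as mean fluorescence fold change above isotype background, measured by FACS after 30 min on ice with 10 μg/ml antibody and PE-conjugated anti-human detection. T47D, which natively expresses PRLR, tested with engineered HEK293/hPRLR and non-expressing HEK293 cells.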

PC3/PRLR tumors = experiment: PC3/PRLR xenograft, tumor size and tumor growth inhibition; type: in vivo, SCID mice; settings: SCID mice, multi-dose 15 mg/kg
Method in brief: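 MCF7/PRLR cells in mammary fat pad of female NCr nude mice, PC3/PRLR in flank of male SCID, T47D #11 in flank of female CB17 SCID, all with estrogen pellets.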

[2] = system: Macaca fascicularis PRLR (mfPRLR.mmh; SEQ ID NO:403); experiment: Surface plasmon resonance (Biacore T200), antibody-capture format; type: binding; settings: analyte mfPRLR.mmh
Method in brief: (§1)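 Antibodies (human IgG1 Fc) captured on an anti-human Fc sensor surface; soluble monomeric (.mmh) or dimeric (.mFc) PRLR injected as analyte. ka and kd obtained by fitting to a 1:1 binding model.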

[3] = molecular target: T2, dimeric human PRLR (hPRLR.mFc; SEQ ID NO:402) (Homo sapiens, UniProt P16471); experiment: as above; type: binding; settings: analyte hPRLR.mFc
T2 construct: dimeric (hPRLR.mFc)
Method in brief: as §1

[4] = molecular target: T3, monomeric human PRLR (hPRLR.mmh; SEQ ID NO:401) (Homo sapiens, UniProt P16471); experiment: as above; type: binding; settings: analyte hPRLR.mmh
T3 construct: soluble monomeric (hPRLR.mmh); mmh (myc-myc-hexahistidine) (C)
Method in brief: as §1

[5] = PC3/PRLR tumors TRIAL #1, Day 63
[6] = PC3/PRLR tumors TRIAL #2, Day 55

T3 sequence (P16471 with tags, fused parts or gaps): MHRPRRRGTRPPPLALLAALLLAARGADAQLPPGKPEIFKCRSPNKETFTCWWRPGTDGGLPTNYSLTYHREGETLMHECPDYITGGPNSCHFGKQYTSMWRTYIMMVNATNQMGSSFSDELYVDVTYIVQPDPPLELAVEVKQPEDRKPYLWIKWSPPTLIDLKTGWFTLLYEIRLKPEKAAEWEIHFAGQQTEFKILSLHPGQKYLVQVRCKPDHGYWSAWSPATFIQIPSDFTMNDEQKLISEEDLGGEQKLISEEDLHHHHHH
T2 sequence (P16471 with tags, fused parts or gaps): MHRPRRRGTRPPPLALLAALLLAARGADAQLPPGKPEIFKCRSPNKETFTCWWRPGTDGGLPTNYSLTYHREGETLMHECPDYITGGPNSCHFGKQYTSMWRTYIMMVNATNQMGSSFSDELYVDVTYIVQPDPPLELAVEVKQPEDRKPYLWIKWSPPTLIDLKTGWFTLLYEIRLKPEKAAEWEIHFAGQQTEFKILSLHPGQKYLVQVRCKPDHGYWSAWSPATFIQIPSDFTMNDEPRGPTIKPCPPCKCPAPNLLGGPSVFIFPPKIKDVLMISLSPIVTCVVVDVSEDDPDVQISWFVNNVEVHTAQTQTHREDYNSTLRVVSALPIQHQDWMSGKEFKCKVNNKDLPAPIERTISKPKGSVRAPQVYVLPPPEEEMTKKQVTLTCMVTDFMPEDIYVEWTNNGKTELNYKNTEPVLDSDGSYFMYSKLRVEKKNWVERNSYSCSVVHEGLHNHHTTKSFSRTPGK
Sequence of Macaca fascicularis PRLR (mfPRLR.mmh; SEQ ID NO:403) (as listed by the source): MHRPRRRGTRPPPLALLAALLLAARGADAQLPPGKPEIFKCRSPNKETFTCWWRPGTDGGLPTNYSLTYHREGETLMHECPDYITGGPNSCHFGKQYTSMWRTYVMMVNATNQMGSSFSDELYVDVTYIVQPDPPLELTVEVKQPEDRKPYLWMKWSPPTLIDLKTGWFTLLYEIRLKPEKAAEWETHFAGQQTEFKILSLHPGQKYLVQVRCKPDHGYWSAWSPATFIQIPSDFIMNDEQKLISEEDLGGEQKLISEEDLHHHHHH

Row | Molecule | FACS Cell Binding (HEK293 parental cells) | FACS Cell Binding [1] | Average Tumor Growth Inhibition (%) (PC3/PRLR tumors; [5]) | Final Tumor size mm^3 (mean ± SEM) (PC3/PRLR tumors; [5]) | ka ([2]; 25° C.) | kd ([2]; 25° C.) | ka ([2]; 37° C.) | kd ([2]; 37° C.) | ka ([3]; 25° C.) | kd ([3]; 25° C.) | ka ([3]; 37° C.) | kd ([3]; 37° C.) | ka ([4]; 25° C.) | kd ([4]; 25° C.) | ka ([4]; 37° C.) | kd ([4]; 37° C.) | Average Tumor Growth Inhibition (%) (PC3/PRLR tumors; [6]) | Final Tumor size mm^3 (mean ± SEM) (PC3/PRLR tumors; [6])
1 | H1H6953N: anti-PRLR antibody, human IgG1 Fc form of H1M6953N of Table 1; HCVR/LCVR SEQ ID NOs 274/282 (antibody, V domains shown) VH: EVQLLESGGGLVQPGGTLRLSCAASGFTFSAYAMSWVRQAPGKGLEWVSSINVRAGDTYYADSVKGRFTISRDNSKNTLFLLMNSLRAEDTAAYYCAKARYSSNWGFDFWGQGTLVTVSS VL: DIVMTQSPDSLTVSLGARTTINCQSSQTILHSSNNHNYLAWYQQKPGLPPKLLIYWSSTRESGVPDRFSGSGSGTDFTLTISSLQAEDVAIYYCQQYSNTPYTFGQGTKLEIN | 2 Fold Above Background | 40 Fold Above Background | 0% | 1306 ± 127 mm^3 | 727000 M/s | 0.000319 s⁻¹ | 947000 M/s | 0.00256 s⁻¹ | 711000 M/s | 4.77e-05 s⁻¹ | 1.47e+06 M/s | 0.00017 s⁻¹ | 792000 M/s | 0.000212 s⁻¹ | 1.1e+06 M/s | 0.00122 s⁻¹ |  | 
2 | H1H6782P: fully human anti-PRLR antibody, non-blocking; HCVR/LCVR SEQ ID NOs 66/74 (antibody, V domains shown) VH: EVQLVESGGGLVQPGRSLRLSCAASGFTFDDYAMHWVRQAPGKGLEWVSGIIWNSGHIGYGDSVKGRFTISRDNAKKSLYLQMNSLRAEDTALYYCARDSGRYQSYFDYWGQGTLVTVSS VL: DIQMTQSPSTLSASVGDRVTITCRASHIISSWLAWYQQKPGKAPKVLIFKASSLESGVPSRFSGSGSGTEFTLTISSLQPDDFATYYCQQYNTYSRTFGQGTKVEIK | 3 Fold Above Background | 43 Fold Above Background |  |  | 266000 M/s | 0.000279 s⁻¹ | 385000 M/s | 0.000767 s⁻¹ | 317000 M/s | 7.13e-05 s⁻¹ | 598000 M/s | 0.00013 s⁻¹ | 360000 M/s | 0.000247 s⁻¹ | 557000 M/s | 0.000716 s⁻¹ | 6% | 1154 ± 212 mm^3
3 | H1H6765P: fully human anti-PRLR antibody, human IgG1 Fc; HCVR/LCVR SEQ ID NOs 18/26 (antibody, V domains shown) VH: EVQLVESGGGVVRPGGSLRLSCVGSGFSFDDHGMNWVRQGPGKGLEWVSGFNWNGGSTNYAESVKGRFTISRDNARNSLFLQMNSLRAEDTALYYCVRGRSGWFNDAFDVWGPGTMVTVSS VL: EIVLTQSPGTLSLSPGERATLSCRASQTINSNYLAWYRQKPGQTPRLLIYGTSSRATGIPDRFSGSGSGTDFSLTISRLEPEDFAVFYCQQYAGLPTFGPGTKVDIK | 2 Fold Above Background | 40 Fold Above Background |  |  | 527000 M/s | 0.000134 s⁻¹ | 1.06e+06 M/s | 5.37e-05 s⁻¹ | 869000 M/s | 3.41e-05 s⁻¹ | 801000 M/s | 0.000103 s⁻¹ | 907000 M/s | 0.000113 s⁻¹ | 1.25e+06 M/s | 0.000366 s⁻¹ |  | 1208 ± 72 mm^3
